# Reference: article PMC12102759
# How the values were obtained:
# Test in all cases: fluorescence polarisation
# [1] = molecular target: FITC-labeled MBOAT1 probe peptide FITC-… (human)
# [2] = molecular target: FITC-labeled PRDM14 probe peptide FITC-… (human)
# [3] = molecular target: FITC-labeled NCOA2 probe peptide FITC-… (human)
# [4] = molecular target: FITC-labeled NKRF probe peptide FITC-…
# [5] = molecular target: SARS‐CoV‐2 NSP3 UBl1 domain (819–925), tag cleaved, for FP (SARS-CoV-2) (UniProt P0DTD1)
# [6] = molecular target: SARS‐CoV‐2 NSP9 (4141–4253), tag cleaved, for FP (SARS-CoV-2) (UniProt P0DTD1)
# [7] = molecular target: SARS‐CoV‐2 NSP3 SUD‐M domain (1356–1493), tag cleaved, for FP (SARS-CoV-2) (UniProt P0DTD1)
substance,measurement,setting,value
SARS-CoV-2 NSP3 ADRP domain (domain or fragment),Kd,[1],51 µM
SARS-CoV-2 NSP3 SUD-M domain (domain or fragment),Kd,[2],23 µM
SARS-CoV-2 NSP3 UBl1 domain (domain or fragment),Kd,[3],67 µM
SARS-CoV-2 non-structural protein 9 (NSP9) (natural protein),Kd,[4],15.5 µM
wild‐type NCOA2_(1073–1088) peptide (from UniProt Q15596 1073-1088),Kd,[5],39 µM
wild‐type NOTCH4 peptide (synthetic),Kd,[6],72 µM
wild‐type PRDM14 peptide (synthetic),Kd,[7],74 µM
